In test [1] the target is T1, recombinant memapsin 2 (M2pd), auto-activated from pro-M2pd at pH 4.0 (human, UniProt P56817 25-419, limits assumed).
T1 construct: also called beta-secretase
The test can be described thus: Ki quoted for the inhibitor used in the crystal trials; assay not described at this place.

The target in test [2] is T1, recombinant memapsin 2 (M2pd), …. The test can be described thus: comparison of Ki of the inhibitor without P4 Glu with that of OM99-2.
Test [3] shares this target. Briefly: enzyme inhibition with a synthetic fluorogenic peptide substrate. The procedure:
Enzyme activity was measured as described above, but with the addition of either OM99-1 or OM99-2.

Where no end group is shown, it is not given here.

The record followed here is patent US20020049303A1 (OKLAHOMA MEDICAL RESEARCH FOUNDATION, published 2002).

A word on the Ki: it is a measure of affinity in units of concentration, obtained from inhibition or displacement.

T1 sequence (P56817 25-419 limits assumed): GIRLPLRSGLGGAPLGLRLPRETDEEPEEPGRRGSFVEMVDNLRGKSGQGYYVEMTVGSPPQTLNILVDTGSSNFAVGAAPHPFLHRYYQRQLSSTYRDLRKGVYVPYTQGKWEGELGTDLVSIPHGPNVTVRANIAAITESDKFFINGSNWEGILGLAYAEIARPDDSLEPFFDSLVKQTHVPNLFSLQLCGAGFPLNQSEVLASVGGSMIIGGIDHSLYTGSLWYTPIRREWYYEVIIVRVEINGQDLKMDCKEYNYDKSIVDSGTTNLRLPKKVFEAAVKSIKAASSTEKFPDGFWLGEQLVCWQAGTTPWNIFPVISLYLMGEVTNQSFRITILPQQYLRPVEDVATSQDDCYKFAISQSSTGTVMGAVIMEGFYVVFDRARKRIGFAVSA

B1: OM99-2: Glu-Val-Asn-Leu*Ala-Ala-Glu-Phe (peptide)
peptide: EVNLAAEF
modifications: also: Leu-Ala peptide bond replaced by hydroxyethylene isostere -CH(OH)-CH2-
As for B1, the inhibitory constant (Ki) in test [1] stood at 10 nM.

B2: OM99-1: Val-Asn-Leu*Ala-Ala-Glu-Phe (peptide)
peptide: VNLAAEF
modifications: also: Leu-Ala peptide bond replaced by hydroxyethylene isostere -CH(OH)-CH2-
notes: also called OMR99-1
As to B2, the “fold increase in Ki against OM99-2” value in test [2] was 10 fold. In addition, in test [3], the Ki turned out to be 30 nM.
